These results are taken from article PMC4829432, “T-box3 is a ciliary protein and regulates stability of the Gli3 transcription factor to control digit number” (eLife, 2016).

Bounds are passed on as bounds.

B1: Kif7, endogenous mouse protein (natural protein, mouse (endogenous in E10.5 embryos), UniProt B7ZNG0 1-1348, looked up)
chain: MGLEAQRLPGAEEAPVRVALRVRPLLPKELLHGHQSCLRVEPERGRITLGRDRHFGFHVVLGEDTGQEAVYQACVQPLLEAFFEGFNATVFAYGQTGSGKTYTMGEASVASLHEDEQGIIPRAMAEAFKLIDENDLLDCLVHVSYLELYKEEFRDLLEVGTASRDIQLREDDRGNVVLCGVKEVDVEGLDEVLSLLEMGNAARHTGATHFNRLSSRSHTVFTVTLEQRGRTPSRLPRPAAGHLLVSKFHFVDLAGSERVLKTGSTGERLKESIQINSTLLALGNVISALGDPQRRGSHIPYRDSKITRILKDSLGGNAKTVMIACVSPSSSDFDETLNTLNYASRAQNIRNRATVNWHPEAERVPEEQAAGARGPPRHRSETRIIHRGRRVPCPAVGSAAVAAGLGAECARCRARTSAAYSLLRELQAEPGLPGAAARKVRDWLCAVEGERSTLSSASGPDSGIESAPAEDQAAQGTSGRKGDEGTQQLLTLQSQVARLEEENRDFLAALEDAMEQYKLQSDRLREQQEEMVELRLRLELAQPGWGAPGLLQGLPPGSFVPRPHTAPLGGAHTHMLGMMPSTCLPGEEVSSEQQVVSGKEVKAEVLAQADKLRSASSTTSEEEGEEEEEEEEEEEEPPRRTLYLRRNGISNWSQRAGLSPGSPPDRKGPEVCPEEPAAAIPAPQAVGSGKVPVQTRQAPAAMASEWRLAQAQQKIRELAINIRMKEELIGELVRTGKAAQALNRQHSQRIRELEQEAERVRAELCEGQRQLRELEGREPQDASERSRLQEFRKRVAAAQSQVQVLKEKKQATERLVSLSAQSETRLQELERNVQLMRRQQGQLQRRLREETEQKRRLETEMNKRQHRVKELELKHEQQQKILKIKTEEIAAFQRKRRSGSNGSVVSLEQQQKIEEQKKWLDQEMEKVLQQRRALEELGEELRKREVILAKKEALMQEKTGLESKRLRSSQALNEDIVRVSSRLEHLEKELSEKSGQLRQGSAQNQQQIRGEIDTLRQEKDSLLKQRLEIDSKLRQGSLLSPEEERTLFQLDEAIEALDAAIEYKNEAITCRQRVLRASASLLSQCEMNLMAKLSYLSSSETRALLCKYFDKVVTLREEQHQQQIAFSELEMQLEEQQRLVYWLEVALERQRLEMDRQLTLQQKEHEQNVQLLLQQGRDHLGEGLADSKRQYEARIHALEKELGRHMWINQELKQKLSAGSTAGQSQGCERRSLCLENRQCLGNEDGLHPAAPEPLWQSSLLEGVSRVWDESRDLVHAPLPLTWKRSSLCSEQGSSEESRVRETTEPPVGRVLPMGEVGLSWNFGPLPKPRWEPRRTSPGMIDVRKNPL
notes: Kif7, ciliary kinesin family protein, mouse, endogenous in E10.5 forelimb buds and whole embryos; source: endogenous, E10.5 mouse forelimb bud lysate or E10.5 whole embryo lysate (control or Tbx3 null)

The target of test [1] is Kif7, endogenous mouse protein (mouse (endogenous in E10.5 embryos)) (UniProt B7ZNG0). Kind of test: co-IP; as a4, but lysates of Tbx3 null (Tbx3 delta-fl/delta-fl, ko) E10.5 embryos; Kif7-Gli3 co-precipitate compared with control (wt) embryos by densitometry.
The target in test [2] is Suppressor of fused (Sufu), endogenous mouse protein (mouse (endogenous in E10.5 embryos)) (UniProt Q9Z0P7). Kind of test: co-IP; endogenous proteins; E10.5 whole mouse embryo lysates in Dignam buffer C, control (wt) embryos; Sufu-Gli3, Sufu-Kif7 and Tbx3-Spop also assayed in Tbx3 null (Tbx3 delta-fl/delta-fl, ko) embryos, where less Sufu-Gli3 and Sufu-Kif7 co-precipitated; 5-10 ug antibody overnight at 4 C, Protein-G Dynal beads, immunoblot, densitometry. Background: Immunoblotting shows a protein as a band on a membrane.

Test [3] has as its target T1, Gli3, endogenous mouse protein as precipitated by anti-Gli3 (Gli3FL and Gli3R not told apart) (mouse (endogenous in E10.5 embryos), UniProt Q61602 1-1583).
T1 construct: Gli3 transcription factor, mouse, endogenous; Used only for the lanes in which Gli3 was the bait (IP with anti-Gli3, blot for the partner); the forms Gli3FL and Gli3R are told apart only on anti-Gli3 blots; also called endogenous Gli3; Gli3 proteins; source: endogenous, E10.5 mouse forelimb bud lysate or E10.5 whole embryo lysate (control or Tbx3 null)
Put plainly: co-IP; as a4, but lysates of Tbx3 null (Tbx3 delta-fl/delta-fl, ko) E10.5 embryos; Kif7-Gli3 co-precipitate compared with control (wt) embryos by densitometry. Conditions: partners not purified.

In test [4] the target is B1. The description is as above. Particulars: partners not purified.
Test [5] deals with T2, Suppressor of fused (Sufu), endogenous mouse protein (mouse (endogenous in E10.5 embryos), UniProt Q9Z0P7 1-484).
T2 construct: Suppressor of fused (Sufu), mouse, endogenous in E10.5 embryos; source: endogenous, E10.5 mouse whole embryo lysate (control or Tbx3 null)
T2 sequence (looked up): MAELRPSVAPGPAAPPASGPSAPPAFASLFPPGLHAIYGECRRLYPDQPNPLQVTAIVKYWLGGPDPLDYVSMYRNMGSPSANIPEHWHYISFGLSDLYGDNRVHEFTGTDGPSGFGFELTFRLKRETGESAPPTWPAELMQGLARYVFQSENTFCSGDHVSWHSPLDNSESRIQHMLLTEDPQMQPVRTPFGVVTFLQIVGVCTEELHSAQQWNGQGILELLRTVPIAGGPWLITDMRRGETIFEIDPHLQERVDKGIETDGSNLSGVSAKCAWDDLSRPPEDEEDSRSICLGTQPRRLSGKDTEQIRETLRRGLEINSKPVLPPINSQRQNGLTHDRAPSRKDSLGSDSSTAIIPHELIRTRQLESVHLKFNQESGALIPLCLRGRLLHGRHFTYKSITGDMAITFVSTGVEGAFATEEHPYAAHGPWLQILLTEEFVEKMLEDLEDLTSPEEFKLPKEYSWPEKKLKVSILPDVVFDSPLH
Put plainly: co-IP; endogenous proteins; E10.5 whole mouse embryo lysates in Dignam buffer C, control (wt) embryos; Sufu-Gli3, Sufu-Kif7 and Tbx3-Spop also assayed in Tbx3 null (Tbx3 delta-fl/delta-fl, ko) embryos, where less Sufu-Gli3 and Sufu-Kif7 co-precipitated; 5-10 ug antibody overnight at 4 C, Protein-G Dynal beads, immunoblot, densitometry. Particulars: partners not purified.

As for “Gli3 repressor form (Gli3R), endogenous mouse protein (from UniProt Q61602 1-1583) (domain or fragment)”, the band intensity ratio of control to mutant in test [1] worked out at 0.25. For the same molecule, in test [2], the fold more co-precipitated in controls than in Tbx3 mutants was above 9 fold.
As to “Gli3 repressor form (Gli3R), endogenous mouse protein (from UniProt Q61602 1-1583)”, the fold more co-precipitated in Tbx3 mutants than in controls in test [1] is 3.3 fold.
Take B1: the “band intensity ratio of control to mutant” value in test [3] came to 0.1.

B2: full length Gli3 (Gli3FL), endogenous mouse protein (natural protein, mouse (endogenous in E10.5 embryos), UniProt Q61602 1-1583, looked up)
chain: MEAQAHSSTATERKKAENSIGKCPTRTDVSEKAVASSTTSNEDESPGQIYHRERRNAITMQPQSVQGLNKISEEPSTSSDERASLIKKEIHGSLPHLAEPSLPYRGTVFAMDPRNGYMEPHYHPPHLFPAFHPPVPIDARHHEGRYHYDPSPIPPLHVPSALSSSPTYPDLPFIRISPHRNPTAASESPFSPPHPYINPYMDYIRSLHSSPSLSMISAARGLSPTDAPHAGVSPAEYYHQMALLTGQRSPYADILPSAATAGAGAIHMEYLHAMDSTRFPSPRLSARPSRKRTLSISPLSDHSFDLQTMIRTSPNSLVTILNNSRSSSSASGSYGHLSASAISPALSFTYPSAPVSLHMHQQILSRQQSLGSAFGHSPPLIHPAPTFPTQRPIPGIPTVLNPVQVSSGPSESSQSKPTSESAVSSTGDPMHNKRSKIKPDEDLPSPGSRGQQEQPEGTTLVKEEADKDESKQEPEVIYETNCHWEGCTREFDTQDQLVHHINNDHIHGEKKEFVCRWLDCSREQKPFKAQYMLVVHMRRHTGEKPHKCTFEGCTKAYSRLENLKTHLRSHTGEKPYVCEHEGCNKAFSNASDRAKHQNRTHSNEKPYVCKIPGCTKRYTDPSSLRKHVKTVHGPEAHVTKKQRGDMHPRPPPPRDSGSHSQSRSPGRPTQGAFGEQKELSNTTSKREECLQVKTVKAEKPMTSQPSPGGQSSCSSQQSPISNYSNSGLELPLTDGGSVADLSAIDETPIMDSTISTATTALALQARRNPAGTKWMEHIKLERLKQVNGMFPRLNPILPSKAPAVSPLIGNGTQSNNNYSSGGPGTLLPSRSDLSGVDFTVLNTLNRRDSNTSTISSAYLSSRRSSGISPCFSSRRSSEASQAEGRPQNVSVADSYDPISTDASRRSSEASQGDGLPSLLSLTPVQQYRLKAKYAAATGGPPPTPLPHMERLSLKTKMALLGEGRDSGVTLPPVHPPRRCSDGGGHTYRGRHLMPHDALANSVRRASDPVRTVSENMSLARVQRFSSLNSFNPPNLPPSVEKRSLVLQNYTRQESSQPRYFQASPCPPSITENVALEALTMDADANLNDEDLLPDDVVQYLNSQNQTGYGQQLQSGISEDSKVAHEPEDLDLAGLPDSHVGQEYPALEQPCSEGSKTDLPIQWNEVSSGTSDLSSSKLKCGQQRPSAQQPRGFGLYNNMVVHPHNLWKVGTGPAGGYQTLGENSSTYNGPEHFAIHSGDGLGTNGNTFHEQPFKTQQYGSQLNRQPLTSSALDHACGTGIQGSKLKGNSLQENGGLLDFSLSVAPNELAGNTVNGMQTQDQMGQGYIAHQLLSGSMQHQGPSRPGQQVLGQVGATSHINIYQGTESCLPGTQDNSSQPSSMAAIRGYQPCASYGGNRRQAMPRGNLTLQQGQLSDMSQSSRVNSIKMEAQGQSQQLCSTVQNYSGQFYDQTMGFSQQDRKAGSFSLSDANCLLQGNGTENSELLSPGANQVTSTVDSFESHDLEGVQIDFDAIIDDGDHTSLMSGALSPSIIQNLSHSSSRLTTPRASLPFPSLSMGTTNMAIGDMSSLLTSLAEESKFLAVMQ
notes: Gli3 transcription factor, mouse, the unprocessed full length form (Gli3FL band on anti-Gli3 immunoblots); also called GliFL; source: endogenous, E10.5 mouse forelimb bud lysate or E10.5 whole embryo lysate (control or Tbx3 null)
Take B2: the “band intensity ratio of control to mutant” value in test [4] worked out at 0.1. The “fold more co-precipitated in controls than in Tbx3 mutants” value in test [5] is 4.6 fold.
